These results are taken from paper PMC4304120.

The target in experiment [1] is thrombin. The experiment can be described thus: SPR; BIAcore T100; thrombin (2000 RU) amine-coupled to a CM5 chip; RGD-hirudin or mutants injected at 30 uL/min in 10 mM HEPES, 150 mM NaCl, 0.005% Surfactant P20, pH 7.5; 1:1 Langmuir fit, KD calculated from ka and kd.
Experiment [2] deals with thrombin.

As a reminder, the Kd is a measure of binding affinity in units of concentration. One may read the koff as the rate constant with which the complex falls apart. A word on the kon: it is a measure of how fast the partners come together. For the substance recombinant RGD-hirudin, in the experiment with thrombin [1], the Kd is 15.5 nM, the koff is 2.73e-05 s⁻¹ and the kon is 1770 M⁻¹ s⁻¹. This substance showed an anti-thrombin specific activity (Titration Testing Method, plasma clotting) in the experiment with thrombin [2] of 18000 ATU/mg.
For RGD-hirudin Y3A, the koff with thrombin [1] was 0.00288 s⁻¹. This substance also came in with an anti-thrombin specific activity (Titration Testing Method, plasma clotting) with thrombin [2] of 4000 ATU/mg.
Turning to RGD-hirudin D55A, in the experiment with thrombin [1], the Kd is 1030 nM, the koff was 0.000383 s⁻¹ and the kon was 371 M⁻¹ s⁻¹. Also, the anti-thrombin specific activity (Titration Testing Method, plasma clotting) in the experiment with thrombin [2] worked out at 12000 ATU/mg.
The corresponding values for RGD-hirudin I59A are 19000 nM, 0.00139 s⁻¹, 73 M⁻¹ s⁻¹ and 9000 ATU/mg.
For RGD-hirudin Q53A, in the experiment with thrombin [1], the Kd is 570 nM, the koff is 3.37e-05 s⁻¹ and the kon was 59.2 M⁻¹ s⁻¹. The same substance returned an anti-thrombin specific activity (Titration Testing Method, plasma clotting) with thrombin [2] of 14000 ATU/mg.
For RGD-hirudin S50A the same measures were 35 nM, 3.94e-05 s⁻¹, 1120 M⁻¹ s⁻¹ and 16000 ATU/mg.
The corresponding values for RGD-hirudin E57A are 2410 nM, 0.000374 s⁻¹, 155 M⁻¹ s⁻¹ and 11000 ATU/mg.
